From US20150044236A1
No end group written: not given here.

Assays:
[1] = biological target: human Kv1.3 voltage-gated potassium channel (human) (UniProt P22001); experiment: cell-based or functional assay
[2] = biological target: human Kv1.1 voltage-gated potassium channel (human) (UniProt Q09470); experiment: cell-based or functional assay
[3] = biological target: DNP(3)-BSA (2,4-dinitrophenol conjugated to bovine serum albumin, 3 DNP moieties per BSA) (bovine) (UniProt P02769); experiment: BIAcore SPR; antibody captured on anti-human IgG Fc surface, DNP(3)-BSA injected (0.78-100 nM); apparent constants
Sequence of DNP(3)-BSA (2,4-dinitrophenol conjugated to bovine serum albumin, 3 DNP moieties per BSA) (bovine) (P02769 25-607 limits assumed): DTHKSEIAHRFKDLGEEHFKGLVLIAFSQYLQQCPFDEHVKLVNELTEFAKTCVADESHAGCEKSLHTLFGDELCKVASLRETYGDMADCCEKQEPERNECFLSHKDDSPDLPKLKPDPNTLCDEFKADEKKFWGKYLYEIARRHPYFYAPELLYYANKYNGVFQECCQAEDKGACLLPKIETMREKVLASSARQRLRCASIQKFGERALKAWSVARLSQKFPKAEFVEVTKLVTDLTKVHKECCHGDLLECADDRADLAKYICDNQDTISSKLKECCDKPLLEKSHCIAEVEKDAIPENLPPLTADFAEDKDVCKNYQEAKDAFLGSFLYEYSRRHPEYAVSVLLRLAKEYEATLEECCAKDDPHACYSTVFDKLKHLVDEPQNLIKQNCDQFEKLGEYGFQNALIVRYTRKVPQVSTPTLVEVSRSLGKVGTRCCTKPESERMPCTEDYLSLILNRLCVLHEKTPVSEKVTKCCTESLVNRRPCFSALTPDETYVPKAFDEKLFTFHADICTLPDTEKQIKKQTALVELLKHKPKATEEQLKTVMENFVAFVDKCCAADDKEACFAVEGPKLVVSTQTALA

[4] = biological target: DNP(31)-BSA (2,4-dinitrophenol conjugated to bovine serum albumin, 31 DNP moieties per BSA) (bovine) (UniProt P02769); experiment: BIAcore SPR; antibody captured on anti-human IgG Fc surface, DNP(31)-BSA injected (0.78-100 nM); apparent constants
Sequence of DNP(31)-BSA (2,4-dinitrophenol conjugated to bovine serum albumin, 31 DNP moieties per BSA) (bovine) (P02769 25-607 limits assumed): as above

[5] = biological target: DNP(31)-BSA (2,4-dinitrophenol conjugated to bovine serum albumin, 31 DNP moieties per BSA) (bovine) (UniProt P02769); experiment: BIAcore SPR; antibody captured on anti-human IgG Fc surface, DNP(31)-BSA injected (0.39-50 nM); apparent constants
[6] = biological target: DNP(3)-BSA (2,4-dinitrophenol conjugated to bovine serum albumin, 3 DNP moieties per BSA) (bovine) (UniProt P02769); experiment: BIAcore SPR; antibody captured on anti-human IgG Fc surface, DNP(3)-BSA injected (0.78-100 nM); apparent constants; DNP(3)-BSA, not DNP(31)-BSA

Sequence of human Kv1.1 voltage-gated potassium channel (human) (Q09470 whole entry): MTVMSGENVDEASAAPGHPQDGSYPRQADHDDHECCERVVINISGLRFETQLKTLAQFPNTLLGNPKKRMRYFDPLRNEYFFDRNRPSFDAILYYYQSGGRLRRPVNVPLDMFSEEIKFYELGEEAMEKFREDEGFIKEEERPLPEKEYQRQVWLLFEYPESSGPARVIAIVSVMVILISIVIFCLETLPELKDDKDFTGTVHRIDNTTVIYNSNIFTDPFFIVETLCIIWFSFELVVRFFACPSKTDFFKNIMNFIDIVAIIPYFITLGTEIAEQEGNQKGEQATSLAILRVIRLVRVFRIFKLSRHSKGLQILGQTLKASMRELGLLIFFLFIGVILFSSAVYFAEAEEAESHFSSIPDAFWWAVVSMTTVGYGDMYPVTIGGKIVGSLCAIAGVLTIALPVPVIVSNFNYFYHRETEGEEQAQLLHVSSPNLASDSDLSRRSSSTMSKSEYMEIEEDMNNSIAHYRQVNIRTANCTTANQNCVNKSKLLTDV
Sequence of human Kv1.3 voltage-gated potassium channel (human) (P22001 whole entry): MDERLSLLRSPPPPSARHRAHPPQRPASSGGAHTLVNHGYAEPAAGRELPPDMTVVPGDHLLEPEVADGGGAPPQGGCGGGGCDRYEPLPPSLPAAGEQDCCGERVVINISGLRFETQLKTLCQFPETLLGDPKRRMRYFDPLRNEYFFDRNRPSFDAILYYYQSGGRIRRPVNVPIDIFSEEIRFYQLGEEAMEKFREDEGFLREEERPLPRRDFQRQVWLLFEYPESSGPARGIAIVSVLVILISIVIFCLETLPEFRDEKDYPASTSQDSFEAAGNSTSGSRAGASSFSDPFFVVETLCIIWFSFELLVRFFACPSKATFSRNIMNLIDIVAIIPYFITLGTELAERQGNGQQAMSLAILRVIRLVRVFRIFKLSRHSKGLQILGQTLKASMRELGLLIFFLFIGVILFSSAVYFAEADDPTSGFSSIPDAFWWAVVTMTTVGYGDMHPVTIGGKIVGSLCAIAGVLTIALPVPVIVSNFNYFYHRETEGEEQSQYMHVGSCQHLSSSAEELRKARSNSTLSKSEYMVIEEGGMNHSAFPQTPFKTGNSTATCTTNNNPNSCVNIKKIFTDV

Row | Molecule | Potency Relative to ShK (WB, IL2) [1] [fold] | Kv1.1 IC50 (asterisk: whole cell patch clamp) [2] [pM] | Kv1.3 IC50 (asterisk: whole cell patch clamp) [1] [pM] | WB (IFNg) IC50 [1] [pM] | WB (IL-2) IC50 [1] [pM] | further results
1 | 20 kDa-PEG-[Lys16]ShK (peptide) | 1.37 |  |  |  |  | 
2 | 20 kDa-PEG-ShK (peptide) | 5.67 | 1630 | 299 |  |  | 
3 | Monovalent Fc/Fc-L10-ShK[2-35] heterodimer (IgG1) (Fc fusion) | 32.1 |  |  | 5200 | 2150 | 
4 | anti-DNP antibody 3B1 (purified from hybridoma) (antibody, human IgG2, kappa, V domains shown) VH: QVQLQESGPGLVKPSETLSLTCTVSGGSISSYYWSWIRQPPGKGLEWIGYIYYSGNTNSNPSLKSRVTISVDTSKNQFSLKLSSVTAADTAVYYCARTYYDSSGYYYRAFDIWGQGTMVTVSS VL: DIQMTQSPSSLSASEGDRVTITCRASQGIRNDLGWYQQKPGKAPKRLIYAASSLQSGVPLRFSGSGSGTEFTLTISSLQPEDFATYYCLQYNSYPWTFGQGTKVEIKR |  |  |  |  |  | Kd [3]: 3000 pM; koff [3]: 0.00036 s⁻¹; kon [3]: 140000 M⁻¹ s⁻¹; Kd [4]: 200 pM; koff [4]: 5.8e-05 s⁻¹; kon [4]: 370000 M⁻¹ s⁻¹
5 | anti-DNP antibody 3B1-G2 (recombinant, CHO) (antibody, human IgG2, kappa, V domains shown) VH: QVQLQESGPGLVKPSETLSLTCTVSGGSISSYYWSWIRQPPGKGLEWIGYIYYSGNTNSNPSLKSRVTISVDTSKNQFSLKLSSVTAADTAVYYCARTYYDSSGYYYRAFDIWGQGTMVTVSS VL: DIQMTQSPSSLSASEGDRVTITCRASQGIRNDLGWYQQKPGKAPKRLIYAASSLQSGVPLRFSGSGSGTEFTLTISSLQPEDFATYYCLQYNSYPWTFGQGTKVEIKR |  |  |  |  |  | Kd [5]: 700 pM; koff [5]: 0.00031 s⁻¹; kon [5]: 420000 M⁻¹ s⁻¹
6 | GGGGSGGGGSSCIDTIPKSRCTAFQCKHSMKYRLSFCRKTCGTC (Fc fusion, not fully specified (N-terminus, bridges); ends and bridges not checked; also: bivalent homodimer via IgG1 Fc) [Bivalent Fc-L10-ShK[2-35] homodimer (IgG1)] | 8.73 | 411 | 116 | 2280 | 585 | 
7 | anti-DNP antibody 3A1 (purified from hybridoma) (antibody, human IgG2, kappa, V domains shown) VH: QVQLQESGPGLVKPSETLSLTCTVSGGSISHYYWSWIRQPPGKGLGWIGYIYYSGSTNYNPSLKSRVTISVDTSKNQFSLKLTSVTAADTAVYYCARARGDGYNYPDAFDIWGQGTMVTVSS VL: DIQMTQSPSSVSASVGDRVTITCRASQGISNWLAWYQRKPGKAPKLLIYAASSLQSGVPSRFSGSGSGTDFTLTISSLQPEDFAAYYCQQASSFPWTFGQGTRVEIKR |  |  |  |  |  | Kd [3]: 526000 pM; koff [3]: 0.00065 s⁻¹; Kd [4]: 9000 pM; koff [4]: 0.00031 s⁻¹; kon [4]: 34000 M⁻¹ s⁻¹; kon [6]: 1200 M⁻¹ s⁻¹
8 | GGGGSGGGGSRSCIDTIPKSRCTAFQCKHSMKYRLSFCRKTCGTC (Fc fusion, not fully specified (N-terminus, bridges); ends and bridges not checked; also: bivalent homodimer via IgG1 Fc) [Bivalent Fc-L10-ShK[1-35] homodimer (IgG1)] | 5.76 | 67 | 15 | 320 | 386 | 
